Results taken from patent publication US20120135461A1, “PRODUCTION OF GLYCOPROTEINS WITH REDUCED O-GLYCOSYLATION COMPRISING THE USE OF AN ALPHA-1,2-MANNOSIDASE” (priority 2010, published 2012).
“Also recorded” adds a separate entry of the source.

B1: Penicillium citrinum: Penicillium citrinum α-1,2-mannosidase, GenBank BAA08275, SEQ ID NO: 8 (protein, listed as Penicillium citrinum)
chain: HPYGETEAVLRSEPKSNQAKADAVKEAFQHAWNGYMKYAFPHDELTPVSNGHADSRNGWGASAVDALSTAVIMGKADVVNAILEHVADIDFSKTSDTVSLFETTIRYLAGMLSGYDLLQGPAKNLVDNQDLIDGLLDQSRNLADVLKFAFDTPSGVPYNNINITSHGNDGATTNGLAVTGTLVLEWTRLSDLTGDEEYAKLSQKAESYLLKPQPSSSEPFPGLVGSSININDGQFADSRVSWNGGDDSFYEYLIKMYVYDPKRFETYKDRWVLAAESTIKHLKSHPKSRPDLTFLSSYSNRNYDLSSQHLTCFDGGSFLLGGTVLDRQDFIDFGLELVDGCEATYNSTLTKIGPDSWGWDPKKVPSDQKEFYEKAGFYISSGSYVLRPEVIESFYYAHRVTGKEIYRDWVWNAFVAINSTCRTDSGFAAVSDVNKANGGSKYDNQESFLFAEVMKYSYLAHSEDAAWQVQKGGKNTFVYNTEAHPISVARN
B2: Aspergillus oryzae: A. oryzae α-1,2-mannosidase, GenBank BAE57653, SEQ ID NO: 14 (protein, listed as Aspergillus oryzae)
chain: YPQFKFEQRVARSNSSESRANAVKEAFVHAWDGYMQYAYPHDELHPISNGVGDSRNGWGASAVDALSTAVIMGNETIVNQILDHIATIDYSKTDDQVSLFETTIRYLGGMLSGYDLLKGPASNLVKDQAKVKTLLDQSQNLADVLKFAFDTPSGIPYNNINITSHGNDGATTNGLAVTGTLVLEWTRLSDLTGDTEYAQLSQKAEDYLLNPSPKSAEPFEGLVGSHINISNGAFADGQVSWNGGDDSFYEYLIKMYVYDPKRFSTYGDRWVKAAESSIKHLASHPEKRPDLTFLASYNDGQYGLSSQHLTCFDGGSFLLGGTVLDRDDFIQFGLDLVKGCHETYNQTLTGIGPESFGWDPKNVPSDQKELYERAGFYISSGAYILRPEVIESFYYAWRITGQEIYREWVWNAFVNINKYCRTDSGFAGLTNVNAANGGGRYDNQESFLFAEVLKYVYLTFAPDNEWQVQRGKGNKFVYNTEAHPVRVAA
B3: Aspergillus saitoi: A. saitoi α-1,2-mannosidase, GenBank BAA08634, SEQ ID NO: 12 (protein, listed as Aspergillus saitoi)
chain: YPHFGSSQPVLHSSSDTTQSRADAIKAAFSHAWDGYLQYAFPHDELHPVSNGYGDSRNGWGASAVDALSTAVIMRNATIVNQILDHVGKIDYSKTNTTVSLFETTIRYLGGMLSGYDLLKGPVSDLVQNSSKIDVLLTQSKNLADVLKFAFDTPSGVPYNNLNITSGGNDGAKTNGLAVTGTLALEWTRLSDLTGDTTYADLSQKAESYLLNPQPKSAEPFPGLVGSNINISNGQFTDAQVSWNGGDDSYYEYLIKMYVYDPKRFGLYKDRWVAAAQSTMQHLASHPSSRPDLTFLASYNNGTLGLSSQHLTCFDGGSFLLGGTVLNRTDFINFGLDLVSGCHDTYNSTLTGIGPESFSWDTSDIPSSQQSLYEKAGFYITSGAYILRPEVIESFYYAWRVTGQETYRDWIWSAFSAVNDYCRTSSGFSGLTDVNAANGGSRYDNQESFLFAEVMKYSYMAFAEDAAWQVQPGSGNQFVFNTEAHPVRVSST
B4: Chaetomiun globosum: C. globosum α-1,2-mannosidase, GenBank XP_001227052, SEQ ID NO: 16 (protein, listed as Chaetomium globosum)
chain: LPRLEDGGRPGAGREDSFWSKVPLHYPPDSIRPLPTGLPVQYPPIQTTTFPAEEDQAARGRRVQRQKAVRDVFAKCWASYRKLAWGADELTPVSGGRKDPFGGWSATLVDSLDTLWIMDMKTEFDEAVAAADGINFTHTAVDRVNVFETNIRYLGGFLAAFDLSGDKRLLGKATEVGDMLYKAFDTPSHMPITRWDMRAAIKGAKQVASEGLIAEVGTLSMEFTRLSMLTGDPKWFDLAQRITDDMAAQQDSTAVPGLWPLKVNGQKRIFNSGPDFTLGAMADSAYEYLPKMSAMMGGQLPMYQTMYEKAMDAATKHNLFRPMTPTNEDILIAGDVHARENGMEFEARGQHLTCFLGGLMALGGRLYGREKDVIAGRKLTDGCVWTYKAFPQGIMPESFVTVSCPAGDACEWDEGVWKKEVLRKANKDTDGPESNAEAEVIIKKQRLPQGFTAVFDRAYLLRPEAIESVFVLYRVTGKVELLEAAWDMFTAIDKATSTDLANSAIRDVTSTDKPEAKDSMESFWMAETLKYFYLIFSDPELINLNEYVLNTEAHPFRRLLPSP

Columns and labels:
O-glycans of α-Her2 = assay: O-mannose chain length analysis by HPAEC-PAD of O-glycans released from α-Her2 from fermented MNS1 strains; type: cell-based, Pichia pastoris
[1] = system: O-glycosylated α-Her2 heavy chain (Hc); type: cell-based, Pichia pastoris

Row | Molecule | O-Man1 (%) (O-glycans of α-Her2) | effect on percentage of O-Man1 / O-mannose chain length relative to no MNS1 control (O-glycans of α-Her2) | α-Her2 Hc migration on Western blot relative to non-transformed control [1]
1 | B1 | 83% | reduced O-mannose chain length, but to a lesser extent | 
2 | B2 | 89% | reduced O-mannose chain length, but to a lesser extent | migration is increased; also recorded: faster relative to the non-transformed control but not as fast
3 | B3 | 86% | reduced O-mannose chain length, but to a lesser extent | faster relative to the non-transformed control but not as fast
4 | B4 | 89% | reduced O-mannose chain length, but to a lesser extent | faster relative to the non-transformed control but not as fast
